Measurements taken from IntAct's records for PubMed 32296183.

B1: Ceroid-lipofuscinosis neuronal protein 6 (Homo sapiens), Q9NWW5 (parent)
chain: MEATRRRQHLGATGGPGAQLGASFLQARHGSVSADEAARTAPFHLDLWFYFTLQNWVLDFGRPIAMLVFPLEWFPLNKPSVGDYFHMAYNVITPFLLLKLIERSPRTLPRSITYVSIIIFIMGASIHLVGDSVNHRLLFSGYQHHLSVRENPIIKNLKPETLIDSFELLYYYDEYLGHCMWYIPFFLILFMYFSGCFTASKAESLIPGPALLLVAPSGLYYWYLVTEGQIFILFIFTFFAMLALVLHQKRKRLFLDSNGLFLFSSFALTLLLVALWVAWLWNDPVLRKKYPGVIYVPEPWAFYTLHVSSRH
partner: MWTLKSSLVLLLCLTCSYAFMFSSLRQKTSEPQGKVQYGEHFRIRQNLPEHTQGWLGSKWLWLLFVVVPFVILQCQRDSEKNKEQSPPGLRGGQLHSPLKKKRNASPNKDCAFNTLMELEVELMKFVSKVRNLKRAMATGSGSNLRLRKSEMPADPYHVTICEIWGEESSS
B2: Ceroid-lipofuscinosis neuronal protein 6 (Homo sapiens), Q9NWW5 (parent)
chain: B1 chain

Variants of: B1
Settings: with FAM209A

Variant	effect of a mutation on the interaction
L47F	with no effect
G123D	with no effect

Variants of: B2
Settings: with stx1a_human STX1A

Variant	effect of a mutation on the interaction
G123D	with no effect
R6T	with no effect
L47F	with no effect

Variants of: B2
Settings: with ar13b_human ARL13B

Variant	effect of a mutation on the interaction
G123D	with no effect
R6T	with no effect
L47F	with no effect

Variants of: B2
Settings: with cxa8_human GJA8, P48165
cxa8_human GJA8, P48165, sequence (P48165 whole entry): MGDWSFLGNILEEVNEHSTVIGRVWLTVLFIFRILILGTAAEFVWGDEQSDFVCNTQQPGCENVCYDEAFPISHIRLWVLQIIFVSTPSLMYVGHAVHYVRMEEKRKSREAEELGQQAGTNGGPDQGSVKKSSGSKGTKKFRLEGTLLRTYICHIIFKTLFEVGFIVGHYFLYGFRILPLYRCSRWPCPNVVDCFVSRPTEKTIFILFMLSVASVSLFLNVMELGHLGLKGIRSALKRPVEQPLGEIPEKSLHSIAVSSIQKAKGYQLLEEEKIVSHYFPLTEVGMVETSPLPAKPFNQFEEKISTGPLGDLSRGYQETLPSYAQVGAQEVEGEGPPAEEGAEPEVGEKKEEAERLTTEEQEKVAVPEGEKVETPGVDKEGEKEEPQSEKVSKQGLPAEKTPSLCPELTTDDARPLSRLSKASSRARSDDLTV

Variant	effect of a mutation on the interaction
G123D	with no effect
R6T	with no effect

Variants of: B2
Settings: with ki2l3_human KIR2DL3, P43628
ki2l3_human KIR2DL3, P43628, sequence (P43628 whole entry): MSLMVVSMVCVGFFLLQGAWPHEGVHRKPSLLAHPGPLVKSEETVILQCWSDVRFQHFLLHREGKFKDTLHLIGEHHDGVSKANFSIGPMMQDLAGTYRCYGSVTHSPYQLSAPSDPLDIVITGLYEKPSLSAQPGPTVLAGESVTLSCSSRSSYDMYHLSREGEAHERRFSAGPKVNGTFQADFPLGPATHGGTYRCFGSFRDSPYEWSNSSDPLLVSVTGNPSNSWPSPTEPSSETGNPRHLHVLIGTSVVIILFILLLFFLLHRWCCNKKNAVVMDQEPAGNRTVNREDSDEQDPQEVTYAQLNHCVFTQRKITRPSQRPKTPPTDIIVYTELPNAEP

Variant	effect of a mutation on the interaction
G123D	with no effect
R6T	with no effect
L47F	with no effect

Variants of: B2
Settings: with lrc25_human LRRC25, Q8N386
lrc25_human LRRC25, Q8N386, sequence (Q8N386 whole entry): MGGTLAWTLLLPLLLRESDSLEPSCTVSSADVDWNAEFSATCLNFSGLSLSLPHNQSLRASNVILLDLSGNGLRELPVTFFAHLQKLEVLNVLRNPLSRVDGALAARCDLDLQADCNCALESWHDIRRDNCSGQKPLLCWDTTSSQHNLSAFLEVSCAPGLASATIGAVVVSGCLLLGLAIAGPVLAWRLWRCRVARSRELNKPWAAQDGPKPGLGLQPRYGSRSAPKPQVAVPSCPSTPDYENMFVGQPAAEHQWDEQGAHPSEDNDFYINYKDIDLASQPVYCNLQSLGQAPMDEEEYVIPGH

Variant	effect of a mutation on the interaction
G123D	with no effect
R6T	with no effect
L47F	with no effect

Variants of: B2
Settings: with tm139_human TMEM139, Q8IV31
tm139_human TMEM139, Q8IV31, sequence (Q8IV31 whole entry): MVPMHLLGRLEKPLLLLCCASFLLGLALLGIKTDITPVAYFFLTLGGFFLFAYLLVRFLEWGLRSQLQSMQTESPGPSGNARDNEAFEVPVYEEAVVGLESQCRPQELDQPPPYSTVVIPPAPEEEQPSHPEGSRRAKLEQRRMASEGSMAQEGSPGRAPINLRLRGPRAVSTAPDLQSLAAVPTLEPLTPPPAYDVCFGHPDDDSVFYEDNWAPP

Variant	effect of a mutation on the interaction
G123D	with no effect
R6T	with no effect
L47F	with no effect

Variants of: B2
Settings: with cd79a_human CD79A

Variant	effect of a mutation on the interaction
R6T	with no effect
L47F	with no effect
